Experimental data from patent publication US20260116991A1.

Experiments:
[1] = target: monkey GPC3 on HEK293T-monkey GPC3 cells (monkey); assay: FACS on HEK293T-monkey GPC3 cells
[2] = target: monkey GPC3-His protein (monkey); assay: ELISA, monkey GPC3-His coated; antibody 0.02 nM
[3] = target: monkey GPC3-His protein (monkey); assay: ELISA, monkey GPC3-His coated; antibody 0.11 nM
[4] = target: monkey GPC3-His protein (monkey); assay: ELISA, monkey GPC3-His coated; antibody 0.53 nM
[5] = target: monkey GPC3-His protein (monkey); assay: ELISA, monkey GPC3-His coated; antibody 2.67 nM
[6] = target: monkey GPC3-His protein (monkey); assay: ELISA, monkey GPC3-His coated; antibody 0.004 nM
[7] = target: monkey GPC3-His protein (monkey); assay: ELISA, monkey GPC3-His coated; antibody 13.33 nM
[8] = target: monkey GPC3-His protein (monkey); assay: ELISA, monkey GPC3-His coated; antibody 66.66 nM
[9] = target: monkey GPC3-His protein (monkey); assay: ELISA, monkey GPC3-His coated; antibody 0.0008 nM

EC50 [1] | Max MFI [1] | OD450 nm [2] | OD450 nm [3] | OD450 nm [4] | OD450 nm [5] | OD450 nm [6] | OD450 nm [7] | OD450 nm [8] | OD450 nm [9] | Binder
5.96 nM | 87000 MFI | – | – | – | – | – | – | – | – | GC33 IgG (antibody, V domains shown) VH: QVQLVQSGAEVKKPGASVKVSCKASGYTFTDYEMHWVRQAPGQGLEWMGALDPKTGDTAYSQKFKGRVTLTADKSTSTAYMELSSLTSEDTAVYYCTRFYSYTYWGQGTLVTVSS VL: DVVMTQSPLSLPVTPGEPASISCRSSQSLVHSNRNTYLHWYLQKPGQSPQLLIYKVSNRFSGVPDRFSGSGSGTDFTLKISRVEAEDVGVYYCSQNTHVPPTFGQGTKLEIKR
– | – | 0.687 | 1.17 | 1.25 | 1.32 | 0.232 | 1.24 | 1.23 | 0.09 | hAb005LH2L1b (antibody, human IgG1, V domains shown) VH: EVQLVQSGAEVKKPGASVKVSCKASGYTFTDYEMHWVRQAPGQGLEWMGAIDPETGNTAYIQKFKGRVTLTTDKSTSTAYMELRSLRSDDTAVYYCTRFYSYSHWGQGTTVTVSS VL: DIVMTQTPLSLPVTPGEPASISCRSSQSLVHSNRNTYLHWYLQKPGQSPQLLIYKVSNRFSGVPDRFSGSGSGTDFTLKISRVEAEDVGVYYCSQNTHVPPTFGGGTKVEIK
– | – | 1.34 | 2.31 | 2.65 | 2.58 | 0.467 | 2.62 | 2.58 | 0.188 | hAb003LH1L1 (antibody, human IgG1, V domains shown) VH: EVQLVQSGAEVKKPGSSVKVSCKASGYTFSDYEMHWVRQAPGQGLEWMGTIDPETGNTAYTQKFMDRVTITADKSTSTAYMELSSLRSEDTAVYYCTRGYSFTYWGQGTLVTVSS VL: DIVMTQTPLSLPVTPGEPASISCRSSQNIVHSNGNTYLQWYLQKPGQSPQLLIFKVSNRFSGVPDRFSGSGSGTDFTLKISRVEAEDVGVYYCFQGSHVPFTFGQGTKLEIK
6.54 nM | 82900 MFI | – | – | – | – | – | – | – | – | hAb006LH3L1e (antibody, human IgG1, V domains shown) VH: EVQLVQSGAEVKKPGSSVKVSCKASGYTFTDYEIHWVRQAPGQGLEWMGAIDPKTGNTAYNQKFMGRVTLTADKSTSTAYMELSSLRSEDTAVYYCTRYFSFAYWGQGTLVTVSS VL: DIVMTQTPLSLPVTPGEPASISCRSSQTFVHSNVNTYLQWYLQKPGQSPQLLIYKVSNRFSGVPDRFSGSGSGTDFTLKISRVEAEDVGVYYCFQGSHVPYTFGQGTKLEIK
19.9 nM | 59700 MFI | – | – | – | – | – | – | – | – | hAb007LH1L1e (antibody, human IgG1, V domains shown) VH: EVQLVQSGAEVKKPGSSVKVSCKASGYTFSDYEMHWVRQAPGQGLEWMGTIDPETGNTAYNQKFKGRVTITADKSTSTAYMELSSLRSEDTAVYYCTRPYSLTYWGQGTLVTVSS VL: DIVMTQTPLSLPVTPGEPASISCRSSQSFVHSNVDTYLQWYLQKPGQSPQLLIYKVSNRFSGVPDRFSGSGSGTDFTLKISRVEAEDVGVYYCFQGSHVPYTFGQGTKLEIK
– | – | 0.065 | 0.137 | 0.549 | 1.39 | 0.055 | 1.84 | 2.06 | 0.047 | hAb006LH2L1a (antibody, human IgG1, V domains shown) VH: EVQLVQSGAEVKKPGSSVKVSCKASGYTFTDYEIHWVRQAPGQGLEWMGAIDPKTGNTAYNQKFMGRVTITADKSTSTAYMELSSLRSEDTAVYYCTRYFSFAYWGQGTLVTVSS VL: DIVMTQTPLSLPVTPGEPASISCRSSQTFVHSDGNTYLQWYLQKPGQSPQLLIYKVSNRFSGVPDRFSGSGSGTDFTLKISRVEAEDVGVYYCFQGSHVPYTFGQGTKLEIK
1.87 nM | 24900 MFI | – | – | – | – | – | – | – | – | hAb001H1L1a (antibody, human IgG1, V domains shown) VH: EVQLVESGGGLVQPGGSLRLSCAASGFSFNTNAMNWVRQAPGKGLEWVGRIRSKSNNYATYYADSVKDRFTISRDDSKNSLYLQMNSLKTEDTAVYYCVRDGYYVLFAYWGQGTLVTVSS VL: DIVMTQTPLSLPVTPGEPASISCRFSQSIVNSDGNTYLEWFLQKPGQSPQLLIYKVSNRFSGVPDRFSGSGSGTDFTLKISRVEAEDVGVYYCFQGSHVPFTFGQGTKLEIK
13.6 nM | 80400 MFI | – | – | – | – | – | – | – | – | hAb007LH1L1d (antibody, human IgG1, V domains shown) VH: EVQLVQSGAEVKKPGSSVKVSCKASGYTFSDYEMHWVRQAPGQGLEWMGTIDPETGNTAYNQKFKGRVTITADKSTSTAYMELSSLRSEDTAVYYCTRPYSLTYWGQGTLVTVSS VL: DIVMTQTPLSLPVTPGEPASISCRSSQSFVHSNSDTYLQWYLQKPGQSPQLLIYKVSNRFSGVPDRFSGSGSGTDFTLKISRVEAEDVGVYYCFQGSHVPYTFGQGTKLEIK
1.08 nM | 33300 MFI | – | – | – | – | – | – | – | – | hAb001H2L1 (antibody, human IgG1, V domains shown) VH: EVQLVESGGGLVQPGGSLRLSCAASGFSFNTNAMNWVRQAPGKGLEWVGRIRSKSNNYATYYADSVKDRFTISRDDSKSSLYLQMNSLKTEDTAVYYCVRDGYYVLFAYWGQGTLVTVSS VL: DIVMTQTPLSLPVTPGEPASISCRFSQSIVNSNGNTYLEWFLQKPGQSPQLLIYKVSNRFSGVPDRFSGSGSGTDFTLKISRVEAEDVGVYYCFQGSHVPFTFGQGTKLEIK
– | – | 0.078 | 0.227 | 0.917 | 1.63 | 0.058 | 1.82 | 2.08 | 0.05 | hAb006LH1L1a (antibody, human IgG1, V domains shown) VH: EVQLVQSGAEVKKPGSSVKVSCKASGYTFSDYEIHWVRQAPGQGLEWMGAIDPKTGNTAYNQKFMGRVTITADKSTSTAYMELSSLRSEDTAVYYCTRYFSFAYWGQGTLVTVSS VL: DIVMTQTPLSLPVTPGEPASISCRSSQTFVHSDGNTYLQWYLQKPGQSPQLLIYKVSNRFSGVPDRFSGSGSGTDFTLKISRVEAEDVGVYYCFQGSHVPYTFGQGTKLEIK
– | – | 1.06 | 2.01 | 2.38 | 2.46 | 0.358 | 2.23 | 2.39 | 0.129 | hAb006LH2L1 (antibody, human IgG1, V domains shown) VH: EVQLVQSGAEVKKPGSSVKVSCKASGYTFTDYEIHWVRQAPGQGLEWMGAIDPKTGNTAYNQKFMGRVTITADKSTSTAYMELSSLRSEDTAVYYCTRYFSFAYWGQGTLVTVSS VL: DIVMTQTPLSLPVTPGEPASISCRSSQTFVHSNGNTYLQWYLQKPGQSPQLLIYKVSNRFSGVPDRFSGSGSGTDFTLKISRVEAEDVGVYYCFQGSHVPYTFGQGTKLEIK
– | – | 0.877 | 2.13 | 2.49 | 2.75 | 0.309 | 2.5 | 2.77 | 0.111 | hAb006LH1L1b (antibody, human IgG1, V domains shown) VH: EVQLVQSGAEVKKPGSSVKVSCKASGYTFSDYEIHWVRQAPGQGLEWMGAIDPKTGNTAYNQKFMGRVTITADKSTSTAYMELSSLRSEDTAVYYCTRYFSFAYWGQGTLVTVSS VL: DIVMTQTPLSLPVTPGEPASISCRSSQTFVHSNANTYLQWYLQKPGQSPQLLIYKVSNRFSGVPDRFSGSGSGTDFTLKISRVEAEDVGVYYCFQGSHVPYTFGQGTKLEIK
2.03 nM | 26900 MFI | – | – | – | – | – | – | – | – | hAb001H2L1a (antibody, human IgG1, V domains shown) VH: EVQLVESGGGLVQPGGSLRLSCAASGFSFNTNAMNWVRQAPGKGLEWVGRIRSKSNNYATYYADSVKDRFTISRDDSKSSLYLQMNSLKTEDTAVYYCVRDGYYVLFAYWGQGTLVTVSS VL: DIVMTQTPLSLPVTPGEPASISCRFSQSIVNSDGNTYLEWFLQKPGQSPQLLIYKVSNRFSGVPDRFSGSGSGTDFTLKISRVEAEDVGVYYCFQGSHVPFTFGQGTKLEIK
– | – | 1.22 | 2.18 | 2.46 | 2.58 | 0.418 | 2.64 | 2.55 | 0.192 | hAb003LH1L1b (antibody, human IgG1, V domains shown) VH: EVQLVQSGAEVKKPGSSVKVSCKASGYTFSDYEMHWVRQAPGQGLEWMGTIDPETGNTAYTQKFMDRVTITADKSTSTAYMELSSLRSEDTAVYYCTRGYSFTYWGQGTLVTVSS VL: DIVMTQTPLSLPVTPGEPASISCRSSQNIVHSNRNTYLQWYLQKPGQSPQLLIFKVSNRFSGVPDRFSGSGSGTDFTLKISRVEAEDVGVYYCFQGSHVPFTFGQGTKLEIK
6.16 nM | 84800 MFI | – | – | – | – | – | – | – | – | hAb006LH3L1d (antibody, human IgG1, V domains shown) VH: EVQLVQSGAEVKKPGSSVKVSCKASGYTFTDYEIHWVRQAPGQGLEWMGAIDPKTGNTAYNQKFMGRVTLTADKSTSTAYMELSSLRSEDTAVYYCTRYFSFAYWGQGTLVTVSS VL: DIVMTQTPLSLPVTPGEPASISCRSSQTFVHSNSNTYLQWYLQKPGQSPQLLIYKVSNRFSGVPDRFSGSGSGTDFTLKISRVEAEDVGVYYCFQGSHVPYTFGQGTKLEIK
1.68 nM | 27200 MFI | – | – | – | – | – | – | – | – | hAb001H1aL1a (antibody, human IgG1, V domains shown) VH: EVQLVESGGGLVQPGGSLRLSCAASGFSFNTNAMNWVRQAPGKGLEWVGRIRSKSNNYATYYADSVKGRFTISRDDSKNSLYLQMNSLKTEDTAVYYCVRDGYYVLFAYWGQGTLVTVSS VL: DIVMTQTPLSLPVTPGEPASISCRFSQSIVNSDGNTYLEWFLQKPGQSPQLLIYKVSNRFSGVPDRFSGSGSGTDFTLKISRVEAEDVGVYYCFQGSHVPFTFGQGTKLEIK
1.33 nM | 33500 MFI | – | – | – | – | – | – | – | – | hAb001H1L1 (antibody, human IgG1, V domains shown) VH: EVQLVESGGGLVQPGGSLRLSCAASGFSFNTNAMNWVRQAPGKGLEWVGRIRSKSNNYATYYADSVKDRFTISRDDSKNSLYLQMNSLKTEDTAVYYCVRDGYYVLFAYWGQGTLVTVSS VL: DIVMTQTPLSLPVTPGEPASISCRFSQSIVNSNGNTYLEWFLQKPGQSPQLLIYKVSNRFSGVPDRFSGSGSGTDFTLKISRVEAEDVGVYYCFQGSHVPFTFGQGTKLEIK
